Measurements taken from patent publication US8227212B2, “Cell that expresses a sulfatase and a formylglycine generating enzyme” (Shire Human Genetic Therapies, Inc., priority 2003, dated 2012).
Read-outs that look alike come from different tables or passages of the source.

Columns and labels:
[1] = molecular target: T1, FGE (Bos taurus, UniProt Q0P5L5); experiment: Affinity matrices: Affigel 10 derivatized with 16mer peptides, binding of FGE; design: species or system bovine
T1 construct: the soluble fraction (reticuloplasm) of bovine testis microsomes served as the starting material; from tissue; host or cells: bovine testis rough microsomes, reticuloplasm
T1 sequence (Q0P5L5 34-374): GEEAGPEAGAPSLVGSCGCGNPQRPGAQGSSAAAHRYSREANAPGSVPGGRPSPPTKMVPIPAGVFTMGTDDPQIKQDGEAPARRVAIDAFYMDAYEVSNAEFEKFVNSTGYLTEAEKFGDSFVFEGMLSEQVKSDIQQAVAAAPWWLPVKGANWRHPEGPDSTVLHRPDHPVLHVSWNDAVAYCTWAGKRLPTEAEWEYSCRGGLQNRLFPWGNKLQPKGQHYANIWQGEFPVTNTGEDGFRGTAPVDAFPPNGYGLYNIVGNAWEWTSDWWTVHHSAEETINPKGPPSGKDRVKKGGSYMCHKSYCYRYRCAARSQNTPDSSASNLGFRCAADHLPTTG
Experimental: Bovine testes were obtained from the local slaughter house and stored for up to 20 h on ice. The parenchyme was freed from connective tissue and homogenized in a waring blendor and by three rounds of motor pottering. Preparation of rough microsomes (RM) by cell fractionation of the obtained homogenate was performed as described (Meyer et al., J. Biol. Chem., 2000, 275:14550-14557) with the following modifications. Three differential centrifugation steps, 20 minutes each at 4° C., were performed at 500 g (JA10 rotor), 3000 g (JA10) and 10000 g (JA20). From the last supernatant the RM membranes were sedimented (125000 g, Ti45 rotor, 45 min, 4° C.), homogenized by motor pottering and layered on a sucrose cushion (50 mM Hepes, pH 7.6, 50 mM KAc, 6 mM MgAc2, 1 mM EDTA, 1.3 M sucrose, 5 mM β-mercaptoethanol). RMs were recovered from the pellet after spinning for 210 minutes at 45000 rpm in a Ti45 rotor at 4° C. Usually 100000-150000 equivalents RM, as defined by Walter and Blobel (Methods Enzymol.,1983, 96:84-93), were obtained from 1 kg of testis tissue. The reticuloplasm, i.e. the luminal content of the RM, was obtained by differential extraction at low concentrations of deoxy Big Chap, as described (Fey et al., J. Biol. Chem., 2001, 276:47021-47028). For FGE purification, 95 ml of reticuloplasm were dialyzed for 20 h at 4° C. against 20 mM Tris/HCl, pH 8.0, 2.5 mM DTT, and cleared by centrifugation at 125000 g for 1 h. 32 ml-aliquots of the cleared reticuloplasm were loaded on a MonoQ HR10/10 column (Amersham Biosciences, Piscataway, N.J.) at room temperature, washed and eluted at 2 ml/min with a linear gradient of 0 to 0.75 M NaCl in 80 ml of the Tris buffer. […] An aliqout of the eluate was substituted with 1 mg/ml bovine serum albumin, dialyzed against buffer A and analyzed for activity. […] The polypeptide composition of the starting material and preparations obtained after the chromatographic steps were monitored by SDSPAGE (15% acrylamide, 0.16% bisacrylamide) and staining with SYPRO Ruby (Bio-Rad Laboratories). […]

[2] = molecular target: T1, FGE; experiment: In vitro assay for FGE with peptide P23 as substrate (MALDI-TOF); assay type: biochemical; conditions: incubation with extracts from microsomes of bovine pancreas or bovine testis
Experimental: For monitoring the activity of FGE, the N-acetylated and C-amidated 23mer peptide P23 ([…]) (SEQ ID NO:33) was used as substrate. The conversion of the Cysteine residue in position 11 to FGly was monitored by MALDI-TOF mass spectrometry. A 6 μM stock solution of P23 in 30% acetonitrile and 0.1% trifluoroacetic acid (TFA) was prepared. Under standard conditions 6 pmol of P23 were incubated at 37° C. with up to 10 μl enzyme in a final volume of 30 μl 50 mM Tris/HCl, pH 9.0, containing 67 mM NaCl, 15 μM CaCl2, 2 mM DTT, and 0.33 mg/ml bovine serum albumin. To stop the enzyme reaction 1.5 μl 10% TFA were added. […] Activity (pmol product/h) was calculated on the basis of the peak height of the product divided by the sum of the peak heights of P23 and the product.
We had developed an assay for determining FGE activity in microsome extracts using in vitro synthesized [^35S] […] The quantitation of the product included tryptic digestion, separation of the peptides by RP-HPLC and identification and quantitation of the [^35S]-labeled FGly containing tryptic peptide by a combination of chemical derivatization to hydrazones, RP-HPLC separation and liquid scintillation counting (Fey et al., J. Biol. Chem., 2001, 276:47021-47028). […] The cysteine and the FGly containing forms of P23 could be identified and quantified by matrix-assisted laser desorption/ionisation time of flight (MALDI-TOF) mass spectrometry. […]

[3] = molecular target: T1, FGE; experiment: In vitro FGE activity assay with [35S] ASA fragments (ribosome-associated nascent chain complexes) as substrate; assay type: biochemical, bovine
Experimental: We had developed an assay for determining FGE activity in microsome extracts using in vitro synthesized [^35S] ASA fragments as substrate. The fragments were added to the assay mixture as ribosome-associated nascent chain complexes. The quantitation of the product included tryptic digestion, separation of the peptides by RP-HPLC and identification and quantitation of the [^35S]-labeled FGly containing tryptic peptide by a combination of chemical derivatization to hydrazones, RP-HPLC separation and liquid scintillation counting (Fey et al., J. Biol. Chem., 2001, 276:47021-47028). For monitoring the enzyme activity during purification, this cumbersome procedure needed to be modified. […] We synthesized the 23mer peptide P23 (SEQ ID NO:33), which corresponds to ASA residues 60-80 with an additional N-acetylated methionine and a C-amidated serine residue to protect the N- and C-terminus, respectively. The cysteine and the FGly containing forms of P23 could be identified and quantified by matrix-assisted laser desorption/ionisation time of flight (MALDI-TOF) mass spectrometry. The presence of the FGly residue in position 11 of P23 was verified by MALDI-TOF post source decay mass spectrometry (see Peng et al., J. Mass Spec., 2003, 38:80-86). […]

[4] = test system: ARSA, ARSC and ARSE; experiment: Co-expression of FGE (SUMF1) and sulfatase cDNAs in cell lines, sulfatase activities; assay type: cell-based, human; conditions: co-transfection with ARSA, ARSC and ARSE cDNAs in various cell lines
From the text: To test the effect of FGE (SUMF1) on additional sulfatase activities in normal cells we overexpressed ARSA (SEQ ID NO:14), ARSC (SEQ ID NO:18) and ARSE (SEQ ID NO:22) cDNAs in various cell lines with and without co-transfection of the FGE (SUMF1) cDNA and measured sulfatase activities.
To test for functional conservation of the FGE (SUMF1) gene during evolution we overexpressed ARSA, ARSC and ARSE cDNAs in various cell lines with and without co-transfection of the […] and measured sulfatase activities.

Question: How did the “binding of FGE to peptide immobilized to Affigel 10” value [1] turn out when “Ser69 peptide: variant of ASA65-80 with Cys69 replaced by serine, PVSLSTPSRAALLTGR (SEQ ID NO:35) (a variant of the ASA65-80 peptide, in which the Cys69 was replaced by a Serine)” was run?
Answer: The value was “efficiently bound FGE”.

Question: For Ac-MTDFYVPVSLCTPSRAALLTGRS-NH2 [P23], which “conversion of the peptide into a FGly containing derivative” value [2] is on record?
Answer: The value was “up to 95%”.

Question: Which “inhibition of FGE activity” value [3] does the source give for “ASA65-80: synthetic 16mer peptide corresponding to ASA residues 65-80 containing the sequence motif required for FGly formation (PVSLCTPSRAALLTGR)” here?
Answer: Its value is “inhibited the FGE activity”.

Question: And the “binding of FGE to peptide immobilized to Affigel 10” value [1]?
Answer: Its value is “bound FGE efficiently”.

Question: What does the source list for “scrambled peptide: variant of ASA65-80 with Cys69, Pro71 and Arg73 scrambled, PVSLPTRSCAALLTGR (SEQ ID NO:34) (a variant of the ASA65-80 peptide, in which residues Cys69, Pro71 and Arg73, critical for FGly formation, were scrambled)”?
Answer: inhibition of FGE activity ([3]; added at 10 mM concentration): did not inhibit FGE activity; binding of FGE to peptide immobilized to Affigel 10 [1]: did not retain FGE activity

Question: “FGE2 (SUMF2): FGE gene paralog located on human chromosome 7 (SEQ ID NOs: 45, 46)” was tested. Which “activity of FGE homologs on overexpressed human sulfatases” value [4] did it give?
Answer: The value was “much weaker”.
